Results taken from publication PMC9021867 (Cell, 2022).

B1: β-VHH4 (VHH)
VHH: QVQLQESGGGSVQAGGSLRLSCAASGSTSCSSVMRWYRQAPGKEREFVSSINSDRRTVYADSVKGRFTISQDNAKSTLYLQMNSLKAEDTATYYCQRELYGDSWCQGNYWGQGTQVTVSS
B2: β-VHH3 (VHH)
VHH: QVQLQESGGGSVQAGGSLRLSCTASGFTFDDEDMGWYRQAPGNECELVSSIGSLGRRYYADSVKDRFAISQDNAKNTVYLQMNSLKPEDTAVYYCAATKGGSWLDSILASCQGAFGYWGQGTQVTVSS
B3: β-VHH6 (VHH)
VHH: QVQLQESGGGSVQAGGSLRLSCAASSYTISSVCMGWFRQAPGKEREGVAGIAPDGSTGYGDSVKGRFTISKDNAKNTLYLQMNSLKPEDTAMYYCAAASPGRCFLPRTALEPALYYNWGQGTQVTVSS
B4: β-VHH1 (VHH)
VHH: QVQLQESGGGSVQAGGSLRLSCVTSGYTYSSANMAWFRQAPGKEREGVAIITPSGRATTYADSVKGRFTISRDNAANTLYLQMNSLKPEDTAMYYCAADTPPYSGLWYAERTYNYWGQGTQVTVSS

What follows are binders tested against Biotinylated human IL-2Rβ ECD (Homo sapiens, UniProt P14784, biotinylated) (assay: SPR).
Biotinylated human IL-2Rβ ECD, sequence (P14784 27-240): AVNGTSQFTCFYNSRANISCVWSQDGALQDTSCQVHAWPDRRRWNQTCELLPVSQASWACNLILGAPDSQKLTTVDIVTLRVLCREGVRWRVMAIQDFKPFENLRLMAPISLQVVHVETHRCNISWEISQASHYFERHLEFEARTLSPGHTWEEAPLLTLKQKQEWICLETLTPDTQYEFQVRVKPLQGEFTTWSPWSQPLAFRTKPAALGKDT
B1: binds.
B2: binds.
B3: binds.
B4: binds.
